T1: human CD73 (Homo sapiens, UniProt P21589)
T1 construct: expressed in transfected cells; stably transfected in method 5.1)
T1 sequence (P21589 27-549): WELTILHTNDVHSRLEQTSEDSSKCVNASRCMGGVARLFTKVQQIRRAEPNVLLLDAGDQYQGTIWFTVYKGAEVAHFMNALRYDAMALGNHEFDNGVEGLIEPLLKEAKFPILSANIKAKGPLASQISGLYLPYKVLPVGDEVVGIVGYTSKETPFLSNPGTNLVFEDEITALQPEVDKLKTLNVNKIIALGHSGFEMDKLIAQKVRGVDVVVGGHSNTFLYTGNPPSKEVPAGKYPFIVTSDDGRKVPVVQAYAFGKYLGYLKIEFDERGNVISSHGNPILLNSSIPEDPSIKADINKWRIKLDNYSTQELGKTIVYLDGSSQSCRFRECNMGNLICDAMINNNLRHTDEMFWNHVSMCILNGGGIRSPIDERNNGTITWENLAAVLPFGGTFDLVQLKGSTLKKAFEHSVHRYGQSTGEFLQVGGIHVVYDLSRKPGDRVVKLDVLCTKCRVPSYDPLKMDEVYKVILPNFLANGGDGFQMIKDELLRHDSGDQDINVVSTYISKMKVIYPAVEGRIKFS

T2: native CD73 on the cell surface of peripheral blood leukocytes (PBMCs) (Homo sapiens, UniProt P21589)
T2 construct: endogenous in cells; host or cells: human PBMCs (B and T lymphocytes)
T2 sequence (P21589 27-549): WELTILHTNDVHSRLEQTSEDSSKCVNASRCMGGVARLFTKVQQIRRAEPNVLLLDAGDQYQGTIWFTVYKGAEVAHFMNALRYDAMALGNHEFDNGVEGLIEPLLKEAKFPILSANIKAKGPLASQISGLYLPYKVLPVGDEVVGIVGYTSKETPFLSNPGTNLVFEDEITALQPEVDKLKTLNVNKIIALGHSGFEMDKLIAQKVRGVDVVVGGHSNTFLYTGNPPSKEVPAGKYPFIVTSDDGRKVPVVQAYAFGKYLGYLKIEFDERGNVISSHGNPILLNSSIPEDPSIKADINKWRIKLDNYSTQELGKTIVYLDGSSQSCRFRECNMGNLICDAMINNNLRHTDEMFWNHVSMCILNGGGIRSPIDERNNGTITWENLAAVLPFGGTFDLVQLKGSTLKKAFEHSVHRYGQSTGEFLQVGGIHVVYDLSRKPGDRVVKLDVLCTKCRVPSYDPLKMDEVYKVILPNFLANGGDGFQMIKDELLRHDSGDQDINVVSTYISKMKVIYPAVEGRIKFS

T3: soluble human CD73 (Homo sapiens, UniProt P21589)
T3 construct: The ectodomain of CD73 (aa 27-549) was expressed as a recombinant protein with a C-terminal His6× tag; His6 (C); made in house; host or cells: transiently transfected HEK cells
T3 sequence (P21589 27-549): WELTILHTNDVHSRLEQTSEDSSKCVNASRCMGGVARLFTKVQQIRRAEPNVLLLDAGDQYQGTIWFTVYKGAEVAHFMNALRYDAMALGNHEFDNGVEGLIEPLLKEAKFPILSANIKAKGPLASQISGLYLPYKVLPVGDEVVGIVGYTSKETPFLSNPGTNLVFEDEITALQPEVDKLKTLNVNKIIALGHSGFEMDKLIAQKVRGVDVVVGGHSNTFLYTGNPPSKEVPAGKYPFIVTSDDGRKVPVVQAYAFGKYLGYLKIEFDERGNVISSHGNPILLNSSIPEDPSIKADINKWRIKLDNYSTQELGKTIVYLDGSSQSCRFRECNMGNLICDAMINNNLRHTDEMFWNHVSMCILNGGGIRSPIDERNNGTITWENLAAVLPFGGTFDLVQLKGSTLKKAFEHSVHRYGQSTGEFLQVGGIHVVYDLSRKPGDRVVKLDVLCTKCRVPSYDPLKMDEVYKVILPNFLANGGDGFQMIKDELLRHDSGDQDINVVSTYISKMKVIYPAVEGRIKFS

T4: CD73-expressing human AML-OCI3 cells (Homo sapiens, UniProt P21589)
T4 construct: CD73-expressing human AML-OCI3 cells (AML cell line); endogenous in cells; host or cells: OCI-AML3 human AML cell line
T4 sequence (P21589 27-549): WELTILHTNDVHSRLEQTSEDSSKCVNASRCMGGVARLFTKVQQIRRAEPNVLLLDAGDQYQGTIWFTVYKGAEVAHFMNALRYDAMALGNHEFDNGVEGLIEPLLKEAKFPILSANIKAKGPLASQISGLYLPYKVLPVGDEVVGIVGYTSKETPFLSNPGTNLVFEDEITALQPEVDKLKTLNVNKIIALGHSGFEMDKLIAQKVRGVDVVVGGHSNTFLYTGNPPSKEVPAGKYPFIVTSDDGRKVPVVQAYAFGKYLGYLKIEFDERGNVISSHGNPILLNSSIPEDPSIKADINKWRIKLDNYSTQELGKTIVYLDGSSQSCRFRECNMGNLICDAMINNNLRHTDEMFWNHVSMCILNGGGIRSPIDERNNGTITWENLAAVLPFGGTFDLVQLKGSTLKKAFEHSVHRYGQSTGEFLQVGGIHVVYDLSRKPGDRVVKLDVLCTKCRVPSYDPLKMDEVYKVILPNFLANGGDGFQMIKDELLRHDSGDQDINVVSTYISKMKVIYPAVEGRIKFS


Columns and labels:
[1] = target: T1, human CD73; test: Flow cytometry binding of rabbit IgG hcAbs to human CD73-transfected HEK cells; set-up: key: binding to human (h) and mouse (m) CD73; binding to human (h) and mouse (m) CD73; conditions: family representative clone; h = binds human CD73, m = binds mouse CD73
Protocol: HEK cells were co-transfected with expression vectors for green fluorescent protein (GFP) and human CD73, mouse CD73, and a control cell surface protein (CD39). 48 h after transfection, cells were incubated with HEK cell supernatants containing the indicated rabbit IgG hcAbs. Bound antibodies were detected with PE-conjugated anti rabbit IgG secondary antibody.
• 5.1 Untransfected HEK293 cells and HEK293 cells stably transfected with human or mouse CD73 were incubated for 30 min with HEK-6E cell supernatants containing rabbit IgG hcAbs (diluted 1:10 in PBS/0.1% BSA). Following washing with PBS/0.1% BSA, bound antibodies were detected with PE-conjugated goat anti-rabbit IgG polyclonal antibody (711-116-152 Dianova, Hamburg). • 5.2 For dissociation analyses, two separate aliquots of CD73-transfected cells were incubated either with Cell Proliferation Dye eFluor 450 (eBioscience) or with hcAbs for 20 min at RT. Cells were washed four times, mixed at a 1:1 ratio and further incubated at RT for 120 min before staining of bound antibodies with PE-conjugated goat anti-rabbit IgG polyclonal antibody. The dissociation of hcAbs from the target cells and association with the eFluor 450 labeled cells was analyzed by flow cytometry using the FlowJo software (Treestar). • 5.3 For epitope analyses, cells were preincubated with excess human IgG hcAbs (10 μl HEK-6E cell supernatant/100 μl PBS/0.1% BSA) for 30 min at RT before addition of Nb-rabbit IgG hcAbs (1 μl HEK-6E cell supernatant/100 μl PBS/0.1% BSA) and further incubation for 20 min at RT and staining with PE-conjugated anti-rabbit polyclonal antibody (711-116-152 Dianova, Hamburg). Cells were washed and analyzed by flow cytometry on a BD-FACS Canto. Data were analyzed using the FlowJo software (Treestar).
The binding specificities of the purified hcAbs were determined by flow cytometry using HEK cells transiently co-transfected with expression vectors for GFP and either mouse CD73, human CD73 or a control protein (CD39). 1×10^6 cells were incubated with 10 μl of the Nb-rbIgG hcAb containing HEK-6E cell supernatants for 30 min at 4° C. After washing, the cells were incubated with PE-conjugated anti-rabbit IgG polyclonal antibody (711-116-152 Dianova, Hamburg) and washed twice. The cells were resuspended in PBS and analyzed by flow cytometry on FACS Canto or FACS Celesta (BD Biosciences, Heidelberg). Data evaluation was conducted using the software FlowJo (Treestar, Stanford, US).

[2] = target: T2, native CD73 on the cell surface of peripheral blood leukocytes (PBMCs); test: Flow cytometry binding of hcAbs to native CD73 on blood leukocytes; conditions: lymphocyte gate, co-stained for CD3 and CD19
Protocol: Purified hcAbs were analysed for binding to native CD73 on the cell surface of peripheral blood leukocytes (PBMCs) by flow cytometry. To this end purified human PBMCs were incubated for 30 min at RT with 10 μl of rabbit hcAb-containing HEK-6E cell supernatants and bound antibodies were detected with a FITC conjugated anti rabbit IgG secondary antibody. To distinguish between B lymphocytes most of which express high levels of cell surface CD73, and T lymphocytes a subset of which express moderate levels of cell surface CD73, cells were co-stained with PE-conjugated mouse anti-human CD3 mAb (UCHT1) and a PerCP/Cy5.5-conjugated mouse anti-human CD19 mAb (HIB19). After washing the cells, cells were analyzed by flow cytometry. A hcAb binding only to murine CD39 (SB30) was used as a negative control. […] Gating was performed on lymphocytes on the basis of forward and side scattered light.

[3] = target: T3, soluble human CD73; test: Off-rates of soluble CD73 from immobilized Nb-rbIgG hcAb on Octet BLI; assay type: binding; conditions: soluble human CD73 ectodomain 200 ng/μl as analyte; Nb-rbIgG hcAb immobilized on protein A biosensor
Protocol: The binding off-rate constants of bivalent hcAbs to human and mouse CD73 protein were determined by […] kinetic analysis on Octet RED96 (ForteBio). Immobilization of rabbit IgG hcAbs on the protein A-biosensor surface was done in HEK-6E cell supernatant, and regeneration of analytes was done with 100 mM Glycin pH=2.5. Recombinant mouse or human CD73 ectodomain was used as analytes and tested at a saturating dose of 200 ng/μl. Sensorgrams were fitted using least square regression in association than dissociation Model in Prism8 (Graphpad).

[4] = target: T4, CD73-expressing human AML-OCI3 cells; test: AMP degradation by cell bound CD73, luminometric AMPglow assay; assay type: cell-based; conditions: CD73 expressed on the cell surface of OCI-AML3 cells; compared with dimeric SB116 or SB188 Fc constructs
Protocol: AMP was added and AMP degradation was measured using the luminometric AMPglow assay. Data analyses were performed using Prism (Graphpad).
(§1) Soluble recombinant human CD73 or CD73-expressing human […] cells were incubated with CD73-specific dimeric clones SB116-rbFc, SB188-rbFc, biparatopic SB116-188-Alb trimers or with non-binding L-10e-rbFc clone (control). AMP was added and AMP degradation was measured using the luminometric AMPglow assay. Data analyses were performed using Prism (Graphpad).

[5] = target: T3, soluble human CD73; test: AMP degradation by soluble CD73, luminometric AMPglow assay; assay type: biochemical; conditions: CD73 present as soluble enzyme; compared with dimeric SB116 or SB188 Fc constructs
Protocol: as §1

specificity [1] | Kdis [3] | Molecule | staining of native CD73 on human PBMCs [2] | blockade of CD73-mediated AMP degradation [4] | blockade of CD73-mediated AMP degradation [5]
h | 0.00036 s⁻¹ | SB142: CD73-specific alpaca VHH clone, family 2 in Tables 1-2, SEQ ID NO:73; tested as rabbit IgG hcAb (antibody, left off: a dimerising Fc or GST, tested as rabbit IgG hcAb) heavy: QVQLVESGGGLVQPGGSLRLSCAASGFTFINYHMSWLRQAPGKGLEWVSEIHSRGDITSYTNSVKGRFTISRDNAKNTLYLQMNSLKFDDTAVYYCARSRDLFGEGEYDYWGRGTQVTVSS | on most B cells and on a subset of T cells | – | –
– | – | SB116-188-Alb: biparatopic SB116-188-Alb trimers, anti-CD73 nanobody heterotrimer (protein, left off: small tags and cut ends; another chain or arm of the molecule, biparatopic SB116-188-Alb trimers, anti-CD73 nanobody heterotrimer) chain (part 1 of 2): QVKLQESGGGRVQTGGSLRLSCAASGISFSITTMYWYRQAPGEQRQLVALITDRGNTYYVDSVKGRFTISRDDSKNTVYLQMNDLKPEDTAVYFCNSIPGNDWGQGTQVTVSS chain (part 2 of 2): QVQLVESGGGLVQAGGSLRLSCAASGFTFINYHMSWLRQAPGKEREFVAEIHSRGDITSYTNSVKGRFTISRDNAKNTVYLQMNSLKPEDTAVYYCARSRDLFNEGEYDYWGRGTQVTVSS | – | less potent compared to dimeric SB116 or SB188 Fc constructs | enhanced blockade of CD73-mediated AMP degradation when compared to dimeric SB116 or SB188 Fc constructs
